One molecule from patent US20180000755A1 (UNIVERSITY OF TOKYO, published 2018) can be followed below.

This test deals with T1, fragment consisting of the region of the 500th to 656th amino acids of FROUNT protein (Homo sapiens (Human), UniProt Q9BW27 500-656).
T1 construct: Fragment used in the NMR analysis; No tag is mentioned; also called FROUNT C-terminal fragment
T1 sequence: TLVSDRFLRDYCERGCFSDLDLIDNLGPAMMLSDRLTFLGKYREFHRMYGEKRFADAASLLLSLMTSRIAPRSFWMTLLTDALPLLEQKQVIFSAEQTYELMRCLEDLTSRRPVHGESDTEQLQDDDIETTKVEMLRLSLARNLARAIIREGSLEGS
In words: NMR chemical shift perturbation.

B1: CCR2 pro-C region fragment of 16 residues (SEQ ID NO:3) (peptide)
peptide: EKFRRYLSVFFRKHIT
notes: Peptide used in the NMR analysis; No biotinylation is mentioned
Consider B1, for which the binding result is recorded as “binds”.
